Results taken from patent US20060216692, “Switchable nucleic acids for diagnostics, screening and molecular electronics” (published 2006).

T1: NCp7 (nucleocapsid protein, Zn2.NCp7(1-55)) (HIV-1, UniProt P35962 SEQ:1-55)
T1 chain: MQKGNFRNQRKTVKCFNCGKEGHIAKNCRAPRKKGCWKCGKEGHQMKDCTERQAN

B1: 154mer packaging domain (ssRNA)
RNA: GGAGCUCUCUCGACGCAGGACUCGGCUUGCUGAAGCGCGCACGGCAAGAGGCGAGGGGCGGCGACUGGUGAGUACGCCAAAAAUUUUGACUAGCGGAGGCUAGAAGGAGAGAGAUGGGUGCGAGAGCGUCAGUAUUAAGCGGGGGAGAAUUAGA

What was measured:
[1] = biological target: NCp7 (nucleocapsid protein, Zn2.NCp7(1-55)) (HIV-1) (UniProt P35962); details: Trp assay; virtually identical Kd to 20mer
[2] = biological target: T1, NCp7 (nucleocapsid protein, …); experiment: Trp37 quenching, 0.2 M NaCl; equivalent of three NCp7 bound with high affinity per RNA; details: about 3 per 154mer); SL1-SL4 stem-loops

| Molecule | binding signal (fold of SL3 20mer) [1] | binding result [2] |
| --- | --- | --- |
| SL3 16mer | 1 |  |
| B1 |  | binds |
